Experimental data from patent US11111295 (CAFA THERAPEUTICS, dated 2021).

Key:
[1] = biological target: human claudin 18A2 (CLD18A2) (human); assay: cell-based or functional assay
[2] = biological target: T1, human claudin 18A2 (CLD18A2) (human); assay: flow cytometry, scFv_Fc on HEK293 cells stably transfected with human CLD18A2
T1 construct: also called CLD18.2; CLDN18A2
Procedure: Binding of anti-Claudin 18A2 scFv_Fc fusion antibody to HEK293 cells stably transfected with CLD18A2 was determined by flow cytometry. Experimental data was analyzed using GraphPad Prism and Guava easyCyte™ HT System instrument as described in Example 1 to obtain EC50 value.

[3] = biological target: T1, human claudin 18A2 (CLD18A2); assay: flow cytometry, hybridoma supernatant on HEK293-CLD18A2 against HEK293-CLD18A1
From the text: (§1) Individual cells were screened for anti-CLD18A2 monoclonal antibody by flow cytometry, and HEK293 cells (HEK-CLD18A2) stably expressing human CLD18A2 were used for primary screening by flow cytometry using a Guava easyCyte™ HT System instrument. The binding of the antibody to human CLD18A1 and CLD18A2 transformants was then compared by flow cytometry. The instrument used was the Guava easyCyte™ HT System.
(§2) After multiple rounds of preparation and screening of hybridomas, the inventors found several antibodies with relatively ideal binding properties.

[4] = biological target: T2, human claudin 18A1 (CLD18A1) (human, UniProt P56856 1-261); assay: flow cytometry, hybridoma supernatant on HEK293 cells stably transfected with human CLD18A1
T2 construct: also called CLD18.1; claudin 18 splice variant 1
T2 sequence: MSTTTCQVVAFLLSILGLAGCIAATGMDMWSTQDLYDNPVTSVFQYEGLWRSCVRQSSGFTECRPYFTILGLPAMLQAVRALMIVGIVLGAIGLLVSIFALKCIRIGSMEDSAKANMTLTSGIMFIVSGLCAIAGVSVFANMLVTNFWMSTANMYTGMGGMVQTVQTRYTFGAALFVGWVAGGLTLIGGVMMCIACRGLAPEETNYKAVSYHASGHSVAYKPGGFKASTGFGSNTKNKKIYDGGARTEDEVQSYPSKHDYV
From the text: as §1, §2

B1: humanized antibody hu2B1-S54A (full antibody) (antibody, human IgG1, kappa, V domains shown)
VH: QVQLVQSGAEVKKPGASVKVSCKASGYTFTSYTMHWVRQAPGQGLEWMGYINPASGYTNYNQKFKDRVTMTRDTSTSTAYMELSSLRSEDTAVYYCARIYYGNSFAYWGQGTLVTVSS
VL: DIVMTQSPDSLAVSLGERATINCKSSQSLLNSGNQKNYLTWYQQKPGQPPKLLIYWASTRESGVPDRFSGSGSGTDFTLTISSLQAEDVAVYYCQNDYSYPLTFGGGTKVEIKR
ADCC effect (LDH release), antibody 20 µg/ml, effector-to-target ratio 50:1 [1]: 62.8%

B2: humanized antibody hu8E5-2I (full antibody) (antibody, human IgG1, kappa, V domains shown)
VH: QVQLQESGPGLIKPSQTLSLTCTVSGGSISSGYNWHWIRQPPGKGLEWIGYIHYTGSTNYNPALRSRVTISVDTSKNQFSLKLSSVTAADTAIYYCARIYNGNSFPYWGQGTTVTVSS
VL: DIVMTQSPDSLAVSLGERATINCKSSQSLFNSGNQKNYLTWYQQKPGQPPKLLIYWASTRESGVPDRFSGSGSGTDFTLTISSLQAEDVAVYYCQNAYSFPYTFGGGTKLEIKR
ADCC effect (LDH release), antibody 20 µg/ml, effector-to-target ratio 50:1 [1]: 72.9%

B3: 8E5 scFv_Fc fusion antibody (scFv of 8E5 fused to human IgG1 Fc portion) (Fc fusion)
scFv: DVQLQESGPDLVKPSQSLSLTCTVTGYSITSGYNWHWIRQFPGNKMEWMGYIHYTGSTNYNPSLRSRISITRDTSKNQFFLQLNSVTTDDTATYYCTRIYNGNSFPYWGQGTSVTVSSGGGGSGGGGSGGGGSDIVMTQSPSSLTVTPGEKVTMTCKSSQSLFNSGNQKNYLTWYQQRPGQPPKMLIYWASTRESGVPDRFTGSGSGTDFTLTISSVQAEDLAVFYCQNAYSFPYTFGGGTKLEIKR
notes: also called parent antibody 8E5; not shown: human IgG1 Fc portion
EC50 [2]: 49.2 nM

B4: 2B1 scFv_Fc fusion antibody (scFv of 2B1 fused to human IgG1 Fc portion) (Fc fusion)
scFv: QVQLQQSGAELARPGASVKMSCKASGYTFTSYTMHWVKQRPGQGLEWIGYINPSSGYTNYNQKFKDKATLTADKSSSTAYMQLSSLTSEDSAVYYCARIYYGNSFAYWGQGTTVTVSSGGGGSGGGGSGGGGSDIVMTQSPSSLTVTAGEKVTMSCKSSQSLLNSGNQKNYLTWYQQKPGQPPKLLIYWASTRESGVPDRFTGSGSGTDFTLTISSVQAEDLAVYYCQNDYSYPLTFGAGTKLELKR
notes: also called murine anti-2B1 ScFv; not shown: human IgG1 Fc portion
EC50 [2]: 3.56 nM

B5: 2B1-N52D scFv_Fc fusion antibody (Fc fusion)
scFv: QVQLQQSGAELARPGASVKMSCKASGYTFTSYTMHWVKQRPGQGLEWIGYIDPSSGYTNYNQKFKDKATLTADKSSSTAYMQLSSLTSEDSAVYYCARIYYGNSFAYWGQGTTVTVSSGGGGSGGGGSGGGGSDIVMTQSPSSLTVTAGEKVTMSCKSSQSLLNSGNQKNYLTWYQQKPGQPPKLLIYWASTRESGVPDRFTGSGSGTDFTLTISSVQAEDLAVYYCQNDYSYPLTFGAGTKLELKR
notes: not shown: human IgG1 Fc portion
EC50 [2]: 6.11 nM

B6: 2B1-S54A scFv_Fc fusion antibody (Fc fusion)
scFv: QVQLQQSGAELARPGASVKMSCKASGYTFTSYTMHWVKQRPGQGLEWIGYINPASGYTNYNQKFKDKATLTADKSSSTAYMQLSSLTSEDSAVYYCARIYYGNSFAYWGQGTTVTVSSGGGGSGGGGSGGGGSDIVMTQSPSSLTVTAGEKVTMSCKSSQSLLNSGNQKNYLTWYQQKPGQPPKLLIYWASTRESGVPDRFTGSGSGTDFTLTISSVQAEDLAVYYCQNDYSYPLTFGAGTKLELKR
notes: as for B5
EC50 [2]: 3.85 nM

B7: hu2B1-S54A scFv fused to human IgG1 Fc portion (Fc fusion)
scFv: QVQLVQSGAEVKKPGASVKVSCKASGYTFTSYTMHWVRQAPGQGLEWMGYINPASGYTNYNQKFKDRVTMTRDTSTSTAYMELSSLRSEDTAVYYCARIYYGNSFAYWGQGTLVTVSSGGGGSGGGGSGGGGSDIVMTQSPDSLAVSLGERATINCKSSQSLLNSGNQKNYLTWYQQKPGQPPKLLIYWASTRESGVPDRFSGSGSGTDFTLTISSLQAEDVAVYYCQNDYSYPLTFGGGTKVEIKR
notes: also called humanized hu2B1-S54A; not shown: human IgG1 Fc portion
EC50 [2]: 18.6 nM

B8: hu8E5 scFv fused to human IgG1 Fc portion (Fc fusion)
scFv: QVQLQESGPGLVKPSQTLSLTCTVSGGSISSGYNWHWIRQPPGKGLEWIGYIHYTGSTNYNPALRSRVTISVDTSKNQFSLKLSSVTAADTAVYYCARIYNGNSFPYWGQGTTVTVSSGGGGSGGGGSGGGGSDIVMTQSPDSLAVSLGERATINCKSSQSLFNSGNQKNYLTWYQQKPGQPPKLLIYWASTRESGVPDRFSGSGSGTDFTLTISSLQAEDVAVYYCQNAYSFPYTFGGGTKLEIKR
notes: also called hu8E5-S62A; not shown: human IgG1 Fc portion
EC50 [2]: 107 nM

B9: hu8E5-2I scFv fused to human IgG1 Fc portion (Fc fusion)
scFv: QVQLQESGPGLIKPSQTLSLTCTVSGGSISSGYNWHWIRQPPGKGLEWIGYIHYTGSTNYNPALRSRVTISVDTSKNQFSLKLSSVTAADTAIYYCARIYNGNSFPYWGQGTTVTVSSGGGGSGGGGSGGGGSDIVMTQSPDSLAVSLGERATINCKSSQSLFNSGNQKNYLTWYQQKPGQPPKLLIYWASTRESGVPDRFSGSGSGTDFTLTISSLQAEDVAVYYCQNAYSFPYTFGGGTKLEIKR
notes: also called mutant hu8E5-2I; not shown: human IgG1 Fc portion
EC50 [2]: 9.22 nM | fold increase of affinity against the parent antibody 8E5 [2]: 5 fold

B10: murine monoclonal antibody 2B1 (hybridoma supernatant) (antibody, V domains shown)
VH: QVQLQQSGAELARPGASVKMSCKASGYTFTSYTMHWVKQRPGQGLEWIGYINPSSGYTNYNQKFKDKATLTADKSSSTAYMQLSSLTSEDSAVYYCARIYYGNSFAYWGQGTTVTVSS
VL: DIVMTQSPSSLTVTAGEKVTMSCKSSQSLLNSGNQKNYLTWYQQKPGQPPKLLIYWASTRESGVPDRFTGSGSGTDFTLTISSVQAEDLAVYYCQNDYSYPLTFGAGTKLELKR
notes: Mouse hybridoma antibody tested as supernatant
fold difference of average fluorescence intensity, CLD18A2 against CLD18A1 cells [3]: > 5 times | binding result [4]: no binding

B11: murine monoclonal antibody 3E12 (hybridoma supernatant) (antibody, V domains shown)
VH: QVQLQQSGPELVKPGALVKISCKASGYTFTSYDINWVKQRPGQGLEWIGWIYPGDGSTKYNEKFKGKATLTADKSSSTAYMQLSSLTSENSAVYFCARGGYRYDEAMDYWGQGTTVTVSS
VL: QIVLTQSPAIMSASPGEKVTMTCSASSSISYMHWYQQKPGTSPKRWIYDTSKLASGVPARFSGSGSGTSYSLTISSMEAEDAATYYCHQRSSYPYTFGGGTKLEIKR
notes: as for B10
fold difference of average fluorescence intensity, CLD18A2 against CLD18A1 cells [3]: > 5 times | binding result [4]: no binding

B12: murine monoclonal antibody 4A11 (hybridoma supernatant) (antibody, V domains shown)
VH: QIQLVQSGPELKKPGETVKISCKASGYTFTNYGMNWVKQAPGKGLKWMGWINTNTGEPTYAEEFKGRFAFSLETSASTAYLQINNLKNEDTATYFCARFSYGNSFAYWGQGTTVTVSS
VL: DIVMTQSPSSLSVSAGEKVTMSCKSSQSLLNSGNQKNYLAWYQQKPGQPPKLLIYGASTRESGVPDRFTGSGSGTDFTLTISSVQAEDLAVYYCQNDHSYPLTFGAGTKLELKR
notes: Mouse hybridoma antibody tested as supernatant; the latter is used
fold difference of average fluorescence intensity, CLD18A2 against CLD18A1 cells [3]: > 5 times | binding result [4]: no binding

B13: murine monoclonal antibody 8E5 (hybridoma supernatant) (antibody, V domains shown)
VH: DVQLQESGPDLVKPSQSLSLTCTVTGYSITSGYNWHWIRQFPGNKMEWMGYIHYTGSTNYNPSLRSRISITRDTSKNQFFLQLNSVTTDDTATYYCTRIYNGNSFPYWGQGTSVTVSS
VL: DIVMTQSPSSLTVTPGEKVTMTCKSSQSLFNSGNQKNYLTWYQQRPGQPPKMLIYWASTRESGVPDRFTGSGSGTDFTLTISSVQAEDLAVFYCQNAYSFPYTFGGGTKLEIKR
notes: as for B10
fold difference of average fluorescence intensity, CLD18A2 against CLD18A1 cells [3]: > 5 times | binding result [4]: no binding
